Experimental data reported in publication PMC9396398, “Crystal structure of Ankyrin-G in complex with a fragment of Neurofascin reveals binding mechanisms required for integrity of the axon initial segment” (The Journal of Biological Chemistry, 2022).
Where a chain is given by its changes, count along the chain named.

How the values were obtained:
Test in all cases: ITC
AnkG R1-24 I277Q, L310Q = target: T1, AnkG R1-24 I277Q, L310Q (Rattus norvegicus)
T1 chain: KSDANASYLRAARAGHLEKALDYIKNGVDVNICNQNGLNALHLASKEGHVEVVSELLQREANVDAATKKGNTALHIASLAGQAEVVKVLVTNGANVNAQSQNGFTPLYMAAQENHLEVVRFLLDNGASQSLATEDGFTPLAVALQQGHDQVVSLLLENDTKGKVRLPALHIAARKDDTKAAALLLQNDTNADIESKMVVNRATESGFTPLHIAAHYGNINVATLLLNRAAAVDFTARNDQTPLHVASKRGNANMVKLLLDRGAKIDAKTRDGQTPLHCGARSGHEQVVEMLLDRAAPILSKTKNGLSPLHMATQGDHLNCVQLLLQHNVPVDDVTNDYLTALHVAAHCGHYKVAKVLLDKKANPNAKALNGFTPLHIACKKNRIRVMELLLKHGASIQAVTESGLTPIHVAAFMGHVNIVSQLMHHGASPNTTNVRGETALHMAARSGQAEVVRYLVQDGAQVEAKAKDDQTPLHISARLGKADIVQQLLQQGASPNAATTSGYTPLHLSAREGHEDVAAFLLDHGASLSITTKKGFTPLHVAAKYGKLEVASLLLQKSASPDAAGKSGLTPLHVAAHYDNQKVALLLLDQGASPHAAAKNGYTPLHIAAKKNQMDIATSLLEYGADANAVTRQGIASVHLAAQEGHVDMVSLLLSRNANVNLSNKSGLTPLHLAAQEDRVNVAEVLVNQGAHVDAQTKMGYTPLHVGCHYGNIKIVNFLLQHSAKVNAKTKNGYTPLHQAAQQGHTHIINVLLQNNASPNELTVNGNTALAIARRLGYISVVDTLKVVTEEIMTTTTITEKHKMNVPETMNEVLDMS

AnkG R1-24 M348Q = target: T2, AnkG R1-24 M348Q (Rattus norvegicus)
T2 chain: T1 chain with Q240I, Q273L, M311Q

AnkG R1-24 L343Q, L376Q = target: T3, AnkG R1-24 L343Q, L376Q (Rattus norvegicus)
T3 chain: T1 chain with Q240I, Q273L, L306Q, L339Q

B1: Nfasc ankyrin-binding domain (ABD, residues 1187-1214) (domain or fragment, UniProt P97685 1187-1214, looked up)
chain: SDDSLVDYGEGGEGQFNEDGSFIGQYTV
notes: also called Nfasc ABD; source: E. coli BL21 (DE3), purified (Ni-NTA, size-exclusion chromatography)
AnkG R1-24 I277Q, L310Q
  Kd: 3 µM
AnkG R1-24 M348Q
  Kd: 1.8 µM
AnkG R1-24 L343Q, L376Q
  Kd: 2 µM
